The text below walks through data of publication PMC8554075.

pKd: −log10 of the molar value.

The assay deals with unmutated common ancestor of the AB-3467 clonal lineage, expressed as human IgG1 (human V(D)J (Ig-humanized TRIANNI mouse)). Briefly: BLI.

Take “SARS-CoV-2 receptor-binding domain (from UniProt P0DTC2 333-528) (domain or fragment)”: the pKd was 6.30.

What is called pKd is the Kd on a negative log10 scale, so that one unit is a factor of ten. A high value points to a small Kd.
